The source of these data is a protein production outcome set (Wang et al. 2014).
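Note: failed if final PepcDB status was selected cloned or expressed and not failed if soluble or beyond.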

This series in a line: label from the status in PepcDB records.
As to “MTELATMEFHAQPQAGEPKPWAFPAPERGSLDNGLTVLRCHRPGQQVVAVEVLLDAPLDAEPAGLDGVATIMARAFSEGTDKHSAEDFAAELERCGATLDAHADHPGVRLSLEVPASRLGKALGLLADALRAPAFADGEVERLVRNRLDEIPHELANPSRRAAKELSKELFPADARMSRPRQGTEETVETIDSAAVRAFYERHVRPATATAVVVGDLTGVDLDALLADTLGAWTGSAAEPRPVPPVTADDRGRVVIVDRPGAVQTQLLIGRTGADRHDRVWPAQVLGTYCLGGTLTSRLDRVLREEKGYTYGVRAFGQVLRSAPDGTGAAMLAISGSVDTPNTGPALEDLWTVLRKLAAEGLTDAERDVAVQNLVGVAPLKYETAAAVASTLADQVEQHLPDDFQATLYRQLAATGTVEATAAVVNAFPVDRLVTVLVGDAAQIKEPVEALGIGEVTVVAAE”, the protein production result was “failed”.

With “MTELEDPSRDRLKHHFAQRVIHQARQILETWQRLQKAQWSVADMAELKEATLRLMRFAERFEQAEHVALAHEINQSLDAVDANRGRLNSHVITELNRLMQRLSRTGLRHGDRLEQTSLPPLRKPVYVVLQDHERAERLAKQLEFFGLSALSLHSVADFQRAMAQRHPAAIVMDVDFSGPGMGLELASQAQEGLEQKLPLLFFSVHETDTPTRLAAVRAGGEEFLTGALEASSLLEKIEVLTCVAQYEPYKVLIIDDSRAQAMHTERVLNAAGIVTRVLIDPIQAMSELADFQPDLIILDMYMPGCTGTELAKVIRHNDRYVSVPIIYLSAEDDQDKQLDAMSEGGDDFLTKPIKPRHLITTVRNRAARARNLKSRMVRDSLTGLYNHTHILQLLEDCSFRSRREGKPLCFAMLDIDHFKRVNDSHGHPMGDRVIKSLALFLKQRLRKTDFIGRYGGEEFAIVMPDTDIHNAHKVLDEIRHRFAEIHYPAQPADLFCTFSAGVVCLGADDDSLSLASQADNALYRAKHAGRNQVHSALVQAPYHIVLAEIEA”, the protein production entry is “failed”.

Consider “MTELGTVLDGKYEILKKVGQGGMSIVYLAMDNRLNKQWAVKEIKNDGSKSTATLLKSLEREANILKDVDHPVLPRIVDIINENGTIYVVMDFVEGKPLSDVLKAEGAQDQNKVIEWGRALASALDYLHSMNPPIIYRDMKPSNVMLKPDGSVKLIDFGTAKEYIVENNADTTALGTRGYAAPEQFGDSQGRGIYNTDARTDIYNLGATLYHLVTGKNPCEPPYEIKPIRQWNPTLSSGFEQIIIKCCQPSPEDRYQSCSELLYALDHYNELDNEFKAKAKRKVAVFATMAGLSILSGCCAIFGGVKKGQLKEQDYNNKIAEAEDAVDSSDYNKAFECYKAAVDIDPTASEAYIGYMDTYAYYYTDEDVATGTGTETPAEKGIKFALRNIDKVKDDVKYEIALLYFNEVPDYSAARKYFNMVGDTENFANDVKQAKYYEAICDNKINKTADFNDSKQEVFDFQQYNSDNIDDTNTYKYVNYLNIATIYVDKLSSDEELANRTIELLQEASDKLNDNATVLSKEFPEERGVNYYSGQYSAILCSVYTYLAEKESDPVEQVAYYREAINSIDSYLSGLDMNGDAVTEKTKNVYAEYSRKKAEIYVSMGDISGDDKNYELAENVYLSAEQMLGVDDYSADLYTSHLTYLYNRYTDLYGSAPDTWDKSARNTVISVYNSGSRISMLADGKKPQWNTLIHKPVIEAIVSGTGSKTGK”, for which the protein production entry was “failed”.

In the case of “MTELRPGGPMYGPTPPLPLPTDRLQFAMPPMYESLDDERTHRKERLAGALRLFGRLGFEDGVSGHITARDPEYSDCFWVNPFGMPFKHVTVSDLVMVNASGQVIEGRYHVNQAAFTVHAQVHAARPDVVAVAHCHSVHGRALSALGDLLDPITQESCAFYEDHALYDAYTGVAVDAEEGRRIASALDTRKALVLRNHGLLTVGDSVDAAAWWFVSMERSCQVQLTARAAGRPVLIDHKQAVATREQLGGDLVAWINYQPLWQDISRSEPDLLS”, the protein production entry was “failed”.

Turning to “MTEMQSLRHRLIRQPGPVSGECWIAFFDGVAHPVLIKNAQGQVIFANRAACDLLGRDRSGLAGGAEHELVAGTQAEQIASFDAEAMRRGSVSAEQEMPGPRGVRRFLVSRRPAGEHLVVTFFEITDLRETEGVLRQREAHLRNLLELHPVAPFSFTADGVLSDLSDRLVAITGLPAGTRHVDAWWAAMHPCDRRDLRRAWIRSVRGGQSFDAEHRLQMPDGAYRWFRARIVARPRDQDQRVDRWFGIIEDVHERRTTVEQLRESEARFRAFADDAPVMIWVTDTEGRNVFVSRSWLGATGQSLDEALGTGWIDAVHPDDRDATAAITREAMRRRIAYTNEFRIRRKDGGWCWVIDVGHPRLLADGTFIGYIGCCVDISARRQAEDDRVMAQLQVFHMARHDMLTGLPNRHYFGDCYQEAVASLAPERSVAVLMLDLDGFKTVNDTRGHPVGDQVLCEVANRLRTSVRSTDTVARLGGDEFAVIQTPIRSEQEACDLARRLIAAISKPFDLEGAVPEVGASVGIAFARGHGDSAEEIMRYADVALYAAKQAGRGTFRVFDEATDTHLQSRQKMKAALRAALGLGELSVFYQPLIGLRDGQVTACEALMRWHRKGAGWITPDQFIPLAEEAGLIGDMGDWVLHEACAQAARWPDSVSVAVNLSPLQFHGGALVDQVASALRASGLPPERLQLEITESVLLDPTDRNIGVLQDLRALGAKIVMDDFGTGYSSLGYLRSFPFDKIKVDRSFIRDLPDAREALAILKAVAGLGRSLDMRTTVEGVETQAQLDCAIAEGVDEAQGYFFSRPLPAPGIASFISGCLPKRRIQPATGDAAT”, the protein production entry is recorded as “failed”.

As to “MTENELLTRCGGKCELCGSDVELAIYDLPASDGHENEIMICENCSSQIAAPDTMDMNHWRCLNDSMWSQVPAVQVMSYRMLKRLSGESWAQDLLDMLYLEDDLRAWGDAEAAAASDDTPPTLDSNGAVLNAGDTVVIIKDLNVKGTSFVAKRGTAVRNIALTNNPEHIEGRVNGTRIVILTCFVKKSLEHHHHHH”, the protein production result is on record as “not failed”.

Take “MTENTKISLIVQEADYNDVGRGYAKINNDVMAKLGVESGDFIKITGKRMGAAKVMRSSVSGSGGIAIDGDIRRSAGAGIGDTVTVEKVVPKTAAKITLQPISQSIRLDSRALEQTIQSKFAGRPITKGQIMTFGFQTKSEDPFFSGWGGFSNYNTEYVDFAVSDVSPGDVAIIGSETTVNYKDSVYKGEDAPKGKSAGNIHYEDIGGLGRELSLVREMIEYPLRHPEVFEKLGIEPPKGVLLYGPPGTGKTLIARAVANEAGAYFDTISGPEIISKYYGDSEEKLREIFEKAEENAPSIIFIDEIDSIAPKREESKGEVERRVVAQLLSLMDGLKSRGKVIVIAATNLPDSIDPALRRGGRFDREIEIGVPDKDGRREILQIHARNVPLSENVKLEKYANTTHGFVGADLALMVKEAAMHALRRAFPGMNPDEEISAEKLENLKVTAEDFESALKMVQPSAMREVLVEVPDIHWADVGGLDSVKEELQQAVEWPLKYREVYKQFATKSPKGFLMFGPPGTGKTLLAKAVANESECNFISVKGPELMSKWVGESEKGIREIFRKARLASPSIIFFDEIDSIVPRRGSYEGSSHVTESVVSQFLTELDGLEELKNVVVIGATNRPDMIDPALLRPGRLEQHIFVPPPDREGRKQILDVYIKDISSMLAEDVNLDELVDKTEGFVGADIEALVREAKMVAIREFVKVMAGHDAAEITLAVSSVKVFGRHFDAALKRVRPSLDKEGRRSAERGSWQYRFNEEERKTLEKGISVVETAEYKDAGSTPELRELDELLMAHQKDFSRIKEIIKTADA”: the protein production result is reported as “failed”.

For the sequence “MTEQFVIIILLIALGYFLKRMNYLKATDSQVLSTLVLNVTLPSLVIVNLNSAKLDVSFSILPIMMIIYGIVAKIIVIWFFRKYDNHMRGSVGMMTGSMNIGLFAYPLVEAIWPSKGMIYFGMVDIGGAIIMFGITYFVGSYFSEGSDQFNFKFLGKKLVQSVPLVTYMIMFGLNMSHIHIWQPAIDFFSVLSKANMPLSMILLGVMLNFSIEREYLPVTIKYLCLHYGLGMLAGTLVHFLLPVSDDMIKTTLLITWLLPVGVAIIPYSIQFKYKTLPFVGMVTNLTIIISIIILYIYQAVFV”, the protein production entry is reported as “failed”.

Turning to “MTESESASGMDGVVLGGTASGVGKTVATLAVARALADAGHDVQPAKAGPDFIDPSHHEPVVGTPSRSLDPWLSGTDGMRRTYHQGDGDVCVVEGMMGLYDGSVASTARVASELDLPVVLVVDASAGMQSVAATALGFQAYAAEASVDVDVAGVLAQRAHGGRHADGIRDALPDSLTYFGRVPPRDDLDVPDRHLGLHMGSEAAIDDDAVDAAAAHVAAKRIADVARTPPRPPAHDPAPDTGQTVAVADDAAFCFAYPATRERLRERADVVTFSPVAGDDLPACDGVYLPGGYPELHTDALADAPALDTLGARAADGLPVLGECGGLMALAESLTTTDGDTAEMAGVLPADVRMQDRYQALDHVELRATGDTLTAGSGATLRGHEFHYSAATVASDARFAFAVERGDGIDGDHDGLTEYRTLGTYAHVHPESTAFDAFLDAL”, the protein production result is recorded as “failed”.

On to “MTESIVCHKCQEAITKRMITALGKTWHPEHFLCHHCDEQILDATFNVQSGEPVCNKCFVERYTYTCAGCKKPILEKTICAMGESWHEDCFCCGGACKKPLANQTFYERDGKPYCKKDYEDLFAARCAKCEKPITDSAVLAMNVKWHRDCFRCNKCENPITSQTFTIDGDKPVCPACNC”, for which the protein production entry is reported as “failed”.

In the case of “MTETESKWDEKLKRFFKDYYWNEILQLANEYPDQRSLAVDFTDIEKFDRDLSREFLEHPGELISAAEAALKEIDLPVEKNLEQAHVRVIKIPNRIPIRELRSKHLTRFVAIEGMIRKATEVRPRITKAAFQCLRCGHLTIVEQNSFKFEEPFAGCEEETCGKKGPFKVSIEDSTFIDAQKLQIQESPENLKGGSQPQSLEVDSEDDLTGNVTPGDRVIINGVLKSRQRTLKDGKSTFYDLILEANSIERLDKDYDELEISAEEEEQILELSRDPAIYEKIISSIAPSIYGYEDIKEALALQLFSGVVKNLPDGSRTRGDIHMMLVGDPGIAKSQLLRYVVKLSPRGVFASGRSASASGLTAAAVKDDMNDGRWTIEGGALVMADMGVAAVDEMDKMRTEDKSALHEAMEQQTISIAKAGIIATLKSRCALLGAANPKYGRFDRYEGLADQINMPPALLSRFDLIFVLLDTPNHSLDSRIANHILQSHYAGELSEQRQKLPGSTISEEFVDAEMEIIEPVIAPEFMRKYIAFARKNVYPVMEEDTRHHLINFYTDLRRSGEGKNTPVPVTARQLEALVRLSEASARVRLSNIVTLEDAKRTIRIVMNCLKNVGVDPETGALDADILASGTSMSQRNKIKLLKDIIKKVSDRHPGSKAPLEEVYAEAESEHGIDRGHAEEYIKKMKQRGDILSPDQTHIRLIN”, the protein production entry was “failed”.

Regarding “MTETFNPDLDLKISRIIKAPRRLVWNAWTDKTSLEQWWVPHPGQCRVDKMELHPGGAFETRYSEDGREFGQHVSGCFLAVDHEQRLIFTDALTAGFRPSAQPFLTAVMTFRDHPDGMEYEAYAMHNNLADRDRHAEMGFFDGWNTVAEQLAQLVEKQAAH”, the protein production entry is given as “failed”.

As to “MTETIKCIGCGVEIQTEDKNEVGYAPASSLEKEQVICQRCFRLKHYNEIQDVSLTDDDFLRILNGIGKSDALVVKIVDIFDFNGSWLPGLHRFVGNNKVLLVGNKADLIPKSVKHDKVKHWMRYSAKQLGLKPEDVFLISAAKGQGIAELADAIEYYRGGKDVYVVGCTNVGKSTFINRMIKEFSDETENVITTSHFPGTTLDLIDIPLDEESSLYDTPGIINHHQMAHYVGKQSLKLITPTKEIKPMVFQLNEEQTLFFSGLARFDYVSGGRRAFTCHFSNRLTIHRTKLEKADELYKNHAGDLLSPPTPEELENMPELVKYEFNIREPKTDVVFSGLGWVTVNEPGAKIVAHVPKGVSVSLRKSLI”, the protein production result was “not failed”.

Consider “MTETIPVFDGHNDFLLRLLRNPANRETIWLKGDGTGHLDLPRMKEGGFAGGFFAIYVPSPQAHDAAHFEAMMDAPPFELPLPPMIRAEQAQPVALAMAGHLLWMERAARGRFKVCRTAAEVRSCHADGIVSGIMHMEGAEAIGADLDALHLFHSLGLRSLGPVWSRPTVFGHGVPFRFPGSPDTGEGLTEAGRRLVAECNRLKIMLDLSHLNEKGFDDVARLSDAPLVATHSNAHAVTPSTRNLTDRQLAMIRESRGMVGLNFATSFLREDGRRSAEMGWEPVLRHLDHLIDRLGEDHVGMGSDFDGATIPQGIADVTGLPALQAAMRAHGYDEPLMRKLCHENWYGLLERSWG”, for which the protein production entry is listed as “not failed”.
